Data set [1] can be described thus: flow cytometry, total cellular PMP22, HEK293. Particulars: glycan lost; control: same variant with N41 intact. For orientation: Flow cytometry measures light scatter and fluorescence of single cells or particles in a stream.
Data set [2] is described as follows: flow cytometry, total PMP22, primary rat Schwann cells. Particulars: glycan lost; control: same variant with N41 intact.
The nature of data set [3]: flow cytometry, trafficking efficiency, rat Schwann cells. Particulars: glycan lost; control: same variant with N41 intact.
A short description of data set [4]: single-cell flow cytometry, surface/total PMP22, HEK293. Particulars: glycan lost.
The nature of data set [5]: flow cytometry, cell surface PMP22, rat Schwann cells. As to conditions: glycan lost; control: same variant with N41 intact.
A short description of data set [6]: flow cytometry, cell surface PMP22, HEK293. As to conditions: glycan lost; control: same CMTD variant with N41 intact.
The nature of data set [7]: flow cytometry, trafficking efficiency of CMTD PMP22 variants. As to conditions: glycan lost; control: same CMTD variant in untreated HEK293.
The nature of data set [8]: flow cytometry, normalized trafficking efficiency of WT PMP22. As to conditions: glycan lost; control: WT PMP22 in untreated or DMSO-treated HEK293.
Data set [9] is described as follows: flow cytometry, total cellular PMP22. As to conditions: glycan changed form; control: WT PMP22 in parental HEK293.
The nature of data set [10]: flow cytometry, trafficking efficiency. Particulars: glycan changed form; control: WT PMP22 in parental HEK293.

Positions count from the first letter of the chain named. Names and notes keep the numbering of the source.

B1: peripheral myelin protein 22 (PMP22): L16P/N41Q (protein)
parent chain: MLLLLLSIIVLHVAVPVLLFVSTIVSQWIVGNGHATDLWQNCSTSSSGNVHHCFSSSPNEWLQSVQATMILSIIFSILSLFLFFCQLFTLTKGGRFYITGIFQILAGLCVMSAAAIYTVRHPEWHLNSDYSYGFAYILAWVAFPLALLSGVIYVILRKRE
As to B1, the expression_or_secretion entry in data set [1] and in data set [2] was “no change” throughout. In addition, the localisation_or_trafficking entry in data set [3] and in [5] was “increases” throughout. Further, in [4] (control: L16P PMP22), the “localisation_or_trafficking, other: trafficking efficiency” value is “increases, 34 ± 10 vs 3 ± 1”.

B2: peripheral myelin protein 22 (PMP22): A67T/N41Q (protein)
parent chain: B1 parent chain with P16L, A67T
On to B2, for which the expression_or_secretion result in data set [1] is “increases”. Also, the localisation_or_trafficking result in data set [6] is on record as “increases”.

B3: peripheral myelin protein 22 (PMP22): G93R/N41Q (protein)
parent chain: B1 parent chain with P16L, G93R
B3: the expression_or_secretion result in data set [1] is “increases”. The localisation_or_trafficking result in data set [6] is reported as “increases”.

B4: peripheral myelin protein 22 (PMP22): N41Q (protein)
parent chain: B1 parent chain with P16L
As to B4, the “localisation_or_trafficking, other: trafficking efficiency” value in data set [4] (control: wild type) is on record as “increases, 53 ± 7 vs 19 ± 5”.

B5: peripheral myelin protein 22 (PMP22): NGI-1 (protein)
parent chain: B1 parent chain with P16L
Take B5: in data set [7], the localisation_or_trafficking result was “increases”. Further, the “localisation_or_trafficking, fold_change” value in data set [8] is recorded as “increases”.

B6: peripheral myelin protein 22 (PMP22): STT3A KO (protein)
parent chain: B1 parent chain with P16L
For B6, in data set [7], the localisation_or_trafficking entry was “no change”. Further, the “localisation_or_trafficking, fold_change” value in [8] is on record as “no change”.

B7: peripheral myelin protein 22 (PMP22): C19 (protein)
parent chain: B1 parent chain with P16L
In the case of B7, in data set [8], the “localisation_or_trafficking, fold_change” value was “increases”.

B8: peripheral myelin protein 22 (PMP22): UGGT1 KO (protein)
parent chain: B1 parent chain with P16L
As for B8, the expression_or_secretion result in data set [9] is given as “decreases”. Also, the localisation_or_trafficking entry in data set [10] is “decreases”.

B9: peripheral myelin protein 22 (PMP22): T118M/N41Q (protein)
parent chain: B1 parent chain with P16L, T118M
Regarding B9, the expression_or_secretion entry in [1] is “increases”. Also, in data set [6], the localisation_or_trafficking entry was “increases”.

B10: peripheral myelin protein 22 (PMP22): STT3B KO (protein)
parent chain: B1 parent chain with P16L
As for B10, in [7], the localisation_or_trafficking entry is on record as “no change”. In addition, the “localisation_or_trafficking, fold_change” value in data set [8] is recorded as “increases”.

The values above are taken from PMC8191293.
